Laboratory results published in the nanobody polyreactivity screen of Harvey et al. (2022).

Assay: yeast display, Sf9 membrane polyspecificity reagent, FACS + sequencing; frameworks hold sequencing errors
Method in brief: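 Nanobodies came from a synthetic yeast display library in Saccharomyces cerevisiae BJ5465, induced with galactose for 36–48 hours and stained for 1 hour at 4 °C with 10% biotinylated, detergent-solubilized Sf9 membrane reagent. Cells were enriched on streptavidin microbeads and then FACS-sorted, with low and high (top ~1%) gates set on anti-HA fluorescence for expression and streptavidin fluorescence for reagent binding. Each polyreactivity label reflects the gate a clone came from. Genes were amplified by colony PCR, sequenced by MiSeq 2 × 250 and filtered by CDR length.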

Sequence	polyreactivity (PSR sort gate)
QVQLVESGGGLVQAGGSLRLSCAASGSIFWYNAMGWYRQAPGKEREFVATITNGTTTNYADSVKGRFTISCDNAKNTVYLQMNSLKPEDTAVYFCAVTGVYVKYDYWGQGTHVTVSS	low polyreactivity
QVQLVESGGGLVQAGGSLRLSCAASGSIFWYYAMGWYRQAPGKERELVAAISSGGSTNYADSVKGRFTISRDNAKNTVYLQMNSLKPEDTAVYYCAAGYAVSWYSAYDSGYWGQCTQVTVSS	low polyreactivity
QVQLVESGGGLVQAGGSLRLSCAASGSIFWYYAMGWYRQAPGKERELVAAISTSGTSTYYADSVKGRFTISRDNAKNTVYLQMNSLKPEDSAVYYCAKRSGARHRLMDYWGQGTQVTVSS	low polyreactivity
QVQLVESGGGLVQAGGSLRLSCAASGSIFWYYVMGWYRQAPGKERELVAAITISGAGTYYADSVKGRFTISRDNAKNTVYLQMNSLKPEDTAVYYCAARLLGHFYPFFLQGLSGFDYWGQGTQVTVSS	low polyreactivity
QVQLVESGGGLVQAGGSLRLSCAASGSIFYANAMGWYRQAPGKERELVAAISRSGGRTYYADSVKGRFTISRDNAKNTVYLQMNSLKPEDTAVYYCNAVYVSYTYQQTRPRYYYWGQGTQVTVSS	high polyreactivity
QVQLVESGGGLVQAGGSLRLSCAASGSIFYAYALGWYRQAPGKERELVAVISRGGITNYADSVKGRFTISRDNAKNTVYLQMNSLKPEDNAVYYCAAATSACGYLRRYGYWGQGTQVTVSS	low polyreactivity
QVQLVESGGGLVQAGGSLRLSCAASGSIFYAYAMGWSRQAPGKERELVATISSVGSTYYADSVKGRFTISRDNAKNTVYLQMNSLKPEDTAVYYCAKPRIVVYKTGYDYWGQGTQVTVSS	low polyreactivity
QVQLVESGGGLVQAGGSLRLSCAASGSIFYAYAMGWYRQAPGKEREFVAVISRGGITNYADSVKGRFTISRDNAKNTVYLQMNSLKPEDTAVYYCAAATSAWGYLRRYGYWGQGTQVTVSS	low polyreactivity
QVQLVESGGGLVQAGGSLRLSCAASGSIFYAYAMGWYRQAPGKERELVAAISSDGSTYYADSVKGRFTISRDNAKNTVYLQMTSLKPEDTAVYYCAASVLAPNAVSGSDYWGQGTQVTVSS	low polyreactivity
QVQLVESGGGLVQAGGSLRLSCAASGSIFYAYVMGWYRQAPGKERELVAAISSGGSTYYADSVKGRFTISRDNAKNTVYLQMNSLKPEDTAVYYCAVGRPSGWSYYTGGDYWGQGTQVTVSS	high polyreactivity
QVQLVESGGGLVQAGGSLRLSCAASGSIFYAYVMGWYRQAPGKERELVAAISSRGGSTHYADSVKGRFTISRDNAKNTVYLQMNSLKPEDTAVYYCAAARGKDGYWGQGTQVTVSS	high polyreactivity
QVQLVESGGGLVQAGGSLRLSCAASGSIFYDNAMGWYRQAPGKEREFVAAISTSGGSTYYADSVKGRFTISRDTAKNTVYLQMNSLKPEDTAVYYCAAEWPDLGYWWWYDVGYGYWGQGTQVTVSS	high polyreactivity
QVQLVESGGGLVQAGGSLRLSCAASGSIFYDNAMGWYRQAPGKERELVAAIDDSDRTYYADSEKGRFTISRDNAKNTVYLQMNSLKPEDTAVYYCARDRWKWHYGYDYWGQGTQVTVSS	low polyreactivity
QVQLVESGGGLVQAGGSLRLSCAASGSIFYDNAMGWYRQAPGKERELVAAITSTGGSTYYADSVKGRFTISRDNAKNTVYLQMNSLKPEDTAVYYCNTPTYLYWGFYTYDYWGQGTQVTVSS	low polyreactivity
QVQLVESGGGLVQAGGSLRLSCAASGSIFYDNGMGWYRQAPGKERELVAAISRGGTTNYADSVKGRFTISRDKAKNTVYLQMNSLKPEDTAVYYCNAETRFTYWGSWYDYWGQGTQVTVSS	low polyreactivity
QVQLVESGGGLVQAGGSLRLSCAASGSIFYDYAMGWYRQATRKERELVPAITNDDSSTYYADSVKGRFTISRDNAKNTVYLQMNSLKPEDTAVYYCRFKYAVAHHFWVYRYDYWGQGTQVTVSS	low polyreactivity
QVQLVESGGGLVQAGGSLRLSCAASGSIFYEYAMGWYRQAPGKEREFVASISWSGGITYYADSVKGRFTISRDNAKNTVYLQMNSLKPEDTAVYYCAADFSWYLYDYDYWGQGTQVTVSA	low polyreactivity
QVQLVESGGGLVQAGGSLRLSCAASGSIFYEYTMGWYRQAPGKERELVAVITSGGTTNYADSVKGRFTISRDNAKNTVYLQMNSLKPEYTAVYYCAAESKNKYDYWGQGTQVTVSS	high polyreactivity
QVQLVESGGGLVQAGGSLRLSCAASGSIFYFNAMGWYRQAAGKEWELVATISRRGGSTYYADSVKGRFTISRDNAKKTVYLQMNSLKPEDTAVYYCAADYYTLYPVYIKRYGYWGQGTQVTVSS	high polyreactivity
QVQLVESGGGLVQAGGSLRLSCAASGSIFYFNTMAWYRQAPGKERELVAVISRRGGSTYYADSVKRRFTISRDNAKNTVYLQMNSLKPEDTAVYYCNAEVFDLWRSFLSPYEYWGQGTQVTVSS	low polyreactivity
QVQLVESGGGLVQAGGSLRLSCAASGSIFYFNVMGWYRQAPGKERELVATITWRDASTNYADSVKARFTISRDNAKNTVYLQMNSLKPEDTAVYYCNADSDWGYFDYDYYYWGQGTEVTVSS	low polyreactivity
QVQLVESGGGLVQAGGSLRLSCAASGSIFYFYAMRWYRQAPGKERELVAAITDGGASTRYADSVKGRFTISRDYAKNTVYLHMNSLKPEDTAVYYCNARKYWKYGSYQYYWGQGTQVTVSW	high polyreactivity
QVQLVESGGGLVQAGGSLRLSCAASGSIFYGNAMGWYRQAPGKERELVAAIDGTGASTYYADSVKGRFTISRDNAKNTVYLKMNSLKPEDTAVYYCNKALTSKDYPVRTVERDYWGQGTQVTVSS	low polyreactivity
QVQLVESGGGLVQAGGSLRLSCAASGSIFYGNAMGWYRQAPGKERELVAAISARGGSTNYADSVKGRFTISRDNAKNTVYLQMNSLKPEDTAVYYCAADTPVWSGYWYDYWGQGTQVTVSS	low polyreactivity
QVQLVESGGGLVQAGGSLRLSCAASGSIFYGNAMGWYRQAPGKERELVAAISKRGGSTYYADSVKGRFTISRDNAKNTVYLQMNSLKPEDTAVYYCAKATAGHTEYYSWGQGTQVTVSS	high polyreactivity
QVQLVESGGGLVQAGGSLRLSCAASGSIFYGNAMGWYRQAPGKERELVAAISNVGRTDYADSVKGRFTISRDNAKNTVYLQMNSLKPEDTAVYYCAAGVYSGYNRYFAPRSWFGYYYWGQGTQVTVSS	low polyreactivity
QVQLVESGGGLVQAGGSLRLSCAASGSIFYGNTMGWYRQAPGKERELVAAISSGGSTKYADSVKGRFTISRDNAKNTVYLQMNSLKPEDTAVYYCAKVAPRSSSSQEYYYWGQGTQVTVSS	low polyreactivity
QVQLVESGGGLVQAGGSLRLSCAASGSIFYGYAMGWYRQAPGKERELVAAISFSGGSTHYADSVKGRFTISRDNAKNTVYLQMNSLKPEDTAVYYCATDSGTPGDDEYWGQGTQVTVSS	low polyreactivity
QVQLVESGGGLVQAGGSLRLSCAASGSIFYGYAMGWYRQAPGKERELVAAISGNGGSTYYADSVKGRFTISRDNAKNTVYLQMNRLKPEDTAVYYCAVEVYHYGFEYDYWGLGTQVTVSS	high polyreactivity
QVQLVESGGGLVQAGGSLRLSCAASGSIFYGYAMGWYRQAPGKERELVAGISNGGSTNYADSVKGRFTISRDNAKNTVYLQMNSLKPEDTAVYYCNRDGTYVYHGGEYCGQGTQVTVSS	low polyreactivity
